T1: dog iRhom2 full length wild type, C-terminally tagged with 3 consecutive copies of the T7 epitope (dog, UniProt Q00M95 1-827)
T1 construct: whole, on cells; also called Dog-iR2-FL-WT-T7
T1 sequence: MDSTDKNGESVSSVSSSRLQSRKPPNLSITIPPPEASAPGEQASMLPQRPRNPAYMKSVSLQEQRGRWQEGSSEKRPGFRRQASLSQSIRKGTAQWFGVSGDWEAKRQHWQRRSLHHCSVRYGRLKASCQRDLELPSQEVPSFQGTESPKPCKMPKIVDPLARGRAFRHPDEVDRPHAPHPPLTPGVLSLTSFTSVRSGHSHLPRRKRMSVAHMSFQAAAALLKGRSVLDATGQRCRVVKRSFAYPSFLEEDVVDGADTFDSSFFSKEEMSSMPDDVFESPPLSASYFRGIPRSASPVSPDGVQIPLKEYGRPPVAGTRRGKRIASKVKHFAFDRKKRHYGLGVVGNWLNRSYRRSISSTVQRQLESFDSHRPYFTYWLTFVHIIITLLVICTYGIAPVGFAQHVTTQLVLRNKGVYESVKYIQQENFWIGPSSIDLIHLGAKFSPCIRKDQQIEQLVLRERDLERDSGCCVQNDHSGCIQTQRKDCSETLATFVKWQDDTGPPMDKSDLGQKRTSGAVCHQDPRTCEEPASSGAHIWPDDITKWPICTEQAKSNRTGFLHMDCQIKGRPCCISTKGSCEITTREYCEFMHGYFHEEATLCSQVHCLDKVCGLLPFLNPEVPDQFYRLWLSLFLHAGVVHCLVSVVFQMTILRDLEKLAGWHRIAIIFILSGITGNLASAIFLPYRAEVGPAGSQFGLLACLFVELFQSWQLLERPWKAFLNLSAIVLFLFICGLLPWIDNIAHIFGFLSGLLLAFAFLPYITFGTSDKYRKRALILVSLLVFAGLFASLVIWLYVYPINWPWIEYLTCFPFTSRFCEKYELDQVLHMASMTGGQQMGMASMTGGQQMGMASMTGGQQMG

B1: antibody 5 (antibody, V domains shown)
VH: QVTLKESGPGILQPSQTLSLTCSFSGFSLSTFGMGVGWIRQPSGKGLEWLAHIWWDDEKYYNSALKSRLTISKATSKNQAFLKIANVDTADTATYYCARISNYGSNYWYFNVWGTGTTVTVSS
VL: QVVLTQSPALMSASPGEKVTMTCSAGSSVSCMYWYQQKPGSSPRVLIYDTSNLASGVPARFTGSGSGTSYSLTISRMEAEDAASYYCQQWNSYPLTFGAGTKLELK
notes: Mouse IgG, kappa light chain; also called clone #5; purified antibody 5
B2: antibody 3 (antibody, V domains shown)
VH: QVTLKESGPGILQPSQTLSLTCSFSGFSLTTFAMGIGWVRQPSGKGLEWLAHIWWDGEKYNNPVLKSRLTISKDTSKNQVFLRIANVDTPDTATYYCARISSIYYIIDNWGQGTSVTVSS
VL: DIVLTQSPATLSVTPGHSVSLSCRASQSISNNLHWYQKKSHESPRLLIKYVSQSISGIPSRFSGSGSGTDFTLSINSVETEDFGMYFCQQSYNWPLTFGAGTKLELK
notes: Mouse IgG, kappa light chain; also called clone #3; purified antibody 3

Molecular target: T1, dog iRhom2 full length wild type, …
Experiment: FACS, MEF-DKO-dog-iR2-FL-WT-T7 cells, 3 µg/ml
Method: In brief, immortalized MEF-DKO-EV control cells, MEF-DKO-rhesus-iR2-FL-WT-T7 cells, MEF-DKO-cyno-iR2-FL-WT-T7 cells, MEF-DKO-dog-iR2-FL-WT-T7 cells and MEF-DKO-rabbit-iR2-FL-WT-T7 cells, as well as their respective iRhom1 counterparts, were harvested with 10 mM EDTA in PBS, washed and resuspended in FACS buffer (PBS, 3% FBS, 0.05% sodium azide), and seeded in Nunc U-bottom 96-well plates (Thermo Fisher Scientific, USA) at approximately 3×10⁵ cells per well. To pellet cells and remove supernatants, the plates were centrifuged at 1,500 rpm and 4° C. for 3 minutes. For primary staining, cells were resuspended in 100 μl per well of either FACS buffer alone (controls), mouse monoclonal anti-T7 IgG (Merck Millipore, USA) at 3 μg/ml FACS buffer or the antibodies of the present disclosure also at 3 μg/ml FACS buffer and incubated on ice for 1 hour. Afterwards, plates were centrifuged at 1,500 rpm and 4° C. for 3 minutes and washed twice with 200 μl per well of FACS buffer. For secondary staining, cells were spun down and resuspended in 100 μl per well of PE-conjugated goat anti-mouse IgG F(ab′)2 detection fragment (Dianova, Germany) diluted 1:100 in FACS buffer. Protected from light, the cell suspensions were incubated on ice for 1 hour. […] Finally, cells were resuspended in 150 μl per well of FACS buffer and analyzed using a BD Accuri™ C6 Plus flow cytometer (Becton Dickinson, Germany).

| Binder | binding result |
| --- | --- |
| B1 | binds |
| B2 | binds |

Reference: patent US20240174744A1 (SCIRHOM, published 2024)
